Columns and labels:
[1] = biological target: murine CD28 on murine T cells (murine) (UniProt P31041); experiment: cell-based or functional assay
[2] = biological target: murine CTLA-4 on murine T cells (murine) (UniProt P09793); experiment: cell-based or functional assay
Chain of UniProt P09793 (P09793 36-223): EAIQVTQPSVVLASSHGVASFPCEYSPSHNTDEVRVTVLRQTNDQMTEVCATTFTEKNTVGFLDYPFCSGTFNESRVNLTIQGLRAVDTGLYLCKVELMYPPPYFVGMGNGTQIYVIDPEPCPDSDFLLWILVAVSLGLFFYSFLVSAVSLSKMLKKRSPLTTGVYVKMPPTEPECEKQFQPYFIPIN

Chain of UniProt P31041 (P31041 20-218): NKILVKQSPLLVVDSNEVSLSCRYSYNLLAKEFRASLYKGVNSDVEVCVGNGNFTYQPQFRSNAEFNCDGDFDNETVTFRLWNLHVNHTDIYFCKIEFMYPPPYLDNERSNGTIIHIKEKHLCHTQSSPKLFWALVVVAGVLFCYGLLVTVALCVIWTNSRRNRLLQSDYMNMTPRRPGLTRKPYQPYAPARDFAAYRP

proliferation and cytokine production of pre-activated T cells (increase over mem2C11scFv alone) [1] | reduction in IL-2 production of pre-activated T cells, with combined mem2C11 and memPVIscFvs [2] | reduction in IL-2 production of pre-activated T cells, with mem2C11 scFv alone [2] | reduction in intensity of the tyrosine-phosphorylated LAT band (photodensitometry, against control scFv) [2] | reduction in intensity of the tyrosine-phosphorylated p23 TCR band (photodensitometry, against control scFv) [2] | reduction in proliferation of pre-activated T cells, with combined mem2C11 and memPVIscFvs [2] | reduction in proliferation of pre-activated T cells, with mem2C11 scFv alone [2] | Substance
10 fold | – | – | – | – | – | – | memPVIscFv (surface-linked anti-murine CD28 scFv derived from hamster mAb PV-1, GPI anchored, expressed on transiently transfected 293 cells)
– | 69% | 67% | 35% | 85% | 66% | 80% | mem4F10scFv (surface-linked anti-murine CTLA-4 scFv derived from hamster mAb UC10-4F10, anchored by a murine B7-1 derived motif, expressed on transiently transfected 293 cells) (from UniProt Q00609 247-302)

Reference: patent publication US20030086932A1
